Experimental data taken from US20230074793A1.

Molecular target: CTLA4 (cytotoxic T-lymphocyte-associated protein 4) (human) (UniProt P16410)
Experiment: cell-based or functional assay

Sequence of CTLA4 (cytotoxic T-lymphocyte-associated protein 4) (human) (P16410 36-223): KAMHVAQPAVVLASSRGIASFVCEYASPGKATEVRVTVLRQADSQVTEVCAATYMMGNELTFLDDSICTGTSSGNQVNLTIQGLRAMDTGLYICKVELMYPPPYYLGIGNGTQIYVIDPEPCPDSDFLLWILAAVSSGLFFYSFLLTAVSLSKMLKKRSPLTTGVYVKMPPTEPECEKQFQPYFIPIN

XmAb®20717 (bispecific antibody)
IL-2 secretion (ELISA of culture supernatants) from SEB-stimulated human PBMC treated 24 hours, versus anti-RSV isotype-control bivalent antibody XENP15074: 4.1 fold
IL-2 secretion (ELISA) from SEB-stimulated human PBMC, versus a mixture of the monovalent component antibodies XENP20111 (anti-PD1 scFv-Fc) and XENP20059 (anti-CTLA4 Fab-Fc): 1.6 fold
IL-2 secretion (ELISA) from SEB-stimulated human PBMC, versus the bivalent anti-PD1 antibody XENP16432: 1.5 fold
